We go through four molecules from patent publication US20160115247A1, “SINGLE DOMAIN ANTIBODIES DIRECTED AGAINST INTRACELLULAR ANTIGENS” (SINGH BIOTECHNOLOGY, LLC, priority 2014, published 2016).

“And” between values parts separate entries of the source, which are not always exact repeats. Equal entries are not always repeated.

For one data set, the system named is MDA-MB-231 cells. The data set can be described thus: MTT proliferation assay, MDA-MB-231.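 Further: human cancer cells kept at 37 °C in humidified 5% CO2, with treated groups compared against a vehicle control group.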 The class given is cell-based, human. Background: Tetrazolium assays rely on reduction of a dye to a coloured formazan, in cell work by metabolically active cells.
A further data set has as its system PANC-1 cells. The data set can be described thus: MTT proliferation assay, PANC-1. The class given is cell-based, human. The following applies: for Mean Absorbance (570 nM) ± S.E.: single experiments 1-3.
Another data set has as its target T1, TNF-alpha (Homo sapiens, UniProt P01375).
T1 construct: host or cells: added to U937 cells
The data set can be described thus: Inhibition of TNF-alpha cytotoxicity in U937 cells. The class given is cell-based. The following applies: constant dose of TNF-alpha at EC50; for inhibition of killing of U937 by TNF-alpha (in words): FIG. 14.

T1 sequence (P01375 77-233 limits assumed): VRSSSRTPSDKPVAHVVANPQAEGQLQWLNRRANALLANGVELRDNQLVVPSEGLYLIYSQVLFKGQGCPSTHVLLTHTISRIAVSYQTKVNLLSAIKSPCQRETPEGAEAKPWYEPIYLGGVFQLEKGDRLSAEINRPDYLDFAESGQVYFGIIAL

B1: B.VHH14: anti-STAT3 single-domain antibody VHH14, SEQ ID NO. 4 (protein)
VHH: QVQLVESGGGSVQAGGSLRLSCVASTYTGCMGWFRQAPGKEREGVAALSSRGFAGHYTDSVKGRFSISRDYVKNAVYLQMNTVKPEDAAMYYCAAREGWECGETWLDRTAGGHTYWGQGTLVTVSS
modifications: camelid
In the case of B1, the “% Inhibition of cell proliferation” value in the data set with MDA-MB-231 cells (3 days of treatment, 10.0 μg/ml) came to 23.1%; in the data set on MDA-MB-231 cells (3 days of treatment, 100.0 μg/ml), 57.0%; with MDA-MB-231 cells (5 days of treatment, 0.5 μg/ml), 0%; in the data set on MDA-MB-231 cells (5 days of treatment, 1.0 μg/ml) it was 0%; in the data set on MDA-MB-231 cells (5 days of treatment, 10.0 μg/ml), 5.5%; in the data set on MDA-MB-231 cells (5 days of treatment, 100.0 μg/ml) it was 18.9%. The “Mean Absorbance (570 nM) ± S.E.” value in the data set with MDA-MB-231 cells (Day 3 post treatment, 0.5 μg/ml) worked out at 0.666 ± 0.022; with MDA-MB-231 cells (Day 3 post treatment, 1.0 μg/ml), 0.644 ± 0.045; in the data set on MDA-MB-231 cells (Day 3 post treatment, 10.0 μg/ml), 0.456 ± 0.048; with MDA-MB-231 cells (Day 3 post treatment, 100 μg/ml), 0.255 ± 0.005; with MDA-MB-231 cells (Day 5 post treatment, 0.5 μg/ml), 0.733 ± 0.038; in the data set on MDA-MB-231 cells (Day 5 post treatment, 1.0 μg/ml) it was 0.794 ± 0.023. For the same molecule, the “Mean Absorbance (570 nM) ± S.E.” value is 0.640 ± 0.011 with MDA-MB-231 cells (Day 5 post treatment, 10.0 μg/ml); 0.549 ± 0.023 in the data set on MDA-MB-231 cells (Day 5 post treatment, 100 μg/ml); 0.456 ± 0.048 and 0.499 ± 0.018 and 0.502 ± 0.048 and 0.559 ± 0.041 in the data set on MDA-MB-231 cells (Table 6, Day 3, 10.0 μg/ml, single experiments 1-4); 0.255 ± 0.005 and 0.357 ± 0.019 and 0.308 ± 0.021 and 0.287 ± 0.021 with MDA-MB-231 cells (Table 6, Day 3, 100 μg/ml, single experiments 1-4). Moreover, the “Mean Absorbance (570 nM) ± S.E., Overall Mean” value with MDA-MB-231 cells (Table 6, Day 3, 10.0 μg/ml) stood at 0.504 ± 0.021; in the data set on MDA-MB-231 cells (Table 6, Day 3, 100 μg/ml) it was 0.302 ± 0.043; in the data set with MDA-MB-231 cells (Table 7, Day 5, 10.0 μg/ml), 0.688 ± 0.131; in the data set with MDA-MB-231 cells (Table 7, Day 5, 100 μg/ml) it was 0.475 ± 0.0690. For the same molecule, the “Overall Average % Inhibition” value with MDA-MB-231 cells (post 3 days, 10.0 μg/ml) is 26.2%; in the data set with MDA-MB-231 cells (post 3 days, 100 μg/ml), 55.7%; in the data set on MDA-MB-231 cells (post 5 days, 10.0 μg/ml), 14.9%; in the data set on MDA-MB-231 cells (post 5 days, 100 μg/ml) it was 38.6%. For the same molecule, the “Mean Growth Inhibition” value with MDA-MB-231 cells (post 3 days, 10.0 μg/ml, single experiments 1-4) was 23.1% and 20.0% and 38.5% and 23.3%; with MDA-MB-231 cells (post 3 days, 100 μg/ml, single experiments 1-4) it was 57.0% and 42.8% and 62.3% and 60.6%.

B2: H.VHH14: anti-STAT3 sdAb VHH14, SEQ ID NO. 4 (protein)
VHH: QVQLVESGGGSVQAGGSLRLSCVASTYTGCMGWFRQAPGKEREGVAALSSRGFAGHYTDSVKGRFSISRDYVKNAVYLQMNTVKPEDAAMYYCAAREGWECGETWLDRTAGGHTYWGQGTLVTVSS
modifications: camelid
Consider B2, for which the “Mean Absorbance (570 nM) ± S.E., Overall Mean” value with PANC-1 cells (Day 3, 10.0 μg/ml) amounted to 1.089 ± 0.085; with PANC-1 cells (Day 3, 100 μg/ml) it was 0.906 ± 0.054; in the data set with PANC-1 cells (Day 5, 10.0 μg/ml) it was 1.368 ± 0.247; in the data set on PANC-1 cells (Day 5, 100 μg/ml), 0.754 ± 0.333. In addition, the “Mean Absorbance (570 nM) ± S.E.” value in the data set on PANC-1 cells (Day 3, 10.0 μg/ml) is 0.920 ± 0.133 and 1.183 ± 0.114 and 1.163 ± 0.044; with PANC-1 cells (Day 3, 100 μg/ml), 0.808 ± 0.239 and 0.993 ± 0.088 and 0.916 ± 0.088; in the data set on PANC-1 cells (Day 5, 10.0 μg/ml), 1.859 ± 0.033 and 1.165 ± 0.015 and 1.081 ± 0.103.

B3: anti-TNF-alpha VHH69: anti-TNF-alpha sdAb, SEQ ID NO. 46 (protein)
VHH: EVQLVESGGGSVLAGGSLRLSCVASGFTSRYNYMAWFRQAPGKEREGVATIGTASGSADYYGSVKDRFTISQDNAKNTVYLQMNSLKPEDTAMYYCAARTYGTISLTPSDYRYWGQGTLVTVSS
modifications: camelid
Regarding B3, in the data set with TNF-alpha, the “IC50 (inhibition of TNF-alpha cytotoxicity against U937)” value is “greater than 208.055 ug/ml” and the “inhibition of killing of U937 by TNF-alpha (in words)” value is listed as “inhibit killing of U937 by TNF-alpha”.

B4: anti-TNF-alpha VHH62: anti-TNF-alpha sdAb, SEQ ID NO. 47 (protein)
VHH: QVQLVESGGGPVQAGETLRLSCTASGFTFAEADMGWYRQAPGHECELVSTITTEGITSEASSYYADSVRGRFTISRDNAKNMVYLQMNSLKPEDTAVYYCAPDPYAYSTYSDYCSWAQGTQGTLVTVSS
modifications: camelid
Take B4: in the data set with TNF-alpha, the “IC50 (inhibition of TNF-alpha cytotoxicity against U937)” value is on record as “approximately 713.6 ug/ml” and the “inhibition of killing of U937 by TNF-alpha (in words)” value is listed as “inhibit killing of U937 by TNF-alpha”.
